The record followed here is article PMC6182155 (Nucleic Acids Research, 2018).

Series [1] concerns the molecule itself. Put plainly: SEC. In general terms: SEC sorts molecules by how far they enter the pores of the column.
Series [2] deals with the molecule itself. Put plainly: crystal structure.

B1: EcoKMcrA with C-terminal His6-tag (EcoKMcrA_(1-277)-GHHHHHHG), wild type (enzyme, E. coli (K strains), UniProt P24200 1-277, looked up)
chain: MHVFDNNGIELKAECSIGEEDGVYGLILESWGPGDRNKDYNIALDYIIERLVDSGVSQVVVYLASSSVRKHMHSLDERKIHPGEYFTLIGNSPRDIRLKMCGYQAYFSRTGRKEIPSGNRTKRILINVPGIYSDSFWASIIRGELSELSQPTDDESLLNMRVSKLIKKTLSQPEGSRKPVEVERLQKVYVRDPMVKAWILQQSKGICENCGKNAPFYLNDGNPYLEVHHVIPLSSGGADTTDNCVALCPNCHRELHYSKNAKELIEMLYVNINRLQK
B1: in series [1], the stoichiometry N (usually the number of molecules, sites or subunits per partner or assembly) was 2.

B2: EcoKMcrA K196E variant with N-terminal His6-tag (…-EcoKMcrA_(1-277)) (enzyme, E. coli (K strains), UniProt P24200 1-277, looked up)
chain: MHVFDNNGIELKAECSIGEEDGVYGLILESWGPGDRNKDYNIALDYIIERLVDSGVSQVVVYLASSSVRKHMHSLDERKIHPGEYFTLIGNSPRDIRLKMCGYQAYFSRTGRKEIPSGNRTKRILINVPGIYSDSFWASIIRGELSELSQPTDDESLLNMRVSKLIKKTLSQPEGSRKPVEVERLQKVYVRDPMVEAWILQQSKGICENCGKNAPFYLNDGNPYLEVHHVIPLSSGGADTTDNCVALCPNCHRELHYSKNAKELIEMLYVNINRLQK
Turning to B2, the binding result in series [2] is recorded as “binds”.
